Laboratory results as given in publication PMC8482512, “Aim32 is a dual-localized 2Fe-2S mitochondrial protein that functions in redox quality control” (The Journal of Biological Chemistry, 2021).

T1: Aim32 with a C-terminal FLAG tag (Aim32-FLAG) (S. cerevisiae, UniProt Q04689 1-311)
T1 construct: Aim32, S. cerevisiae, PCR-amplified from genomic DNA of strain GA74-1A; also called pAIM32-FLAG; pAIM32; source: S. cerevisiae Δaim32 strain transformed with [pAIM32-FLAG]; (GPD promoter), mitochondrial lysate; not shown: 3XFLAG, C-terminal, kept
T1 sequence (looked up): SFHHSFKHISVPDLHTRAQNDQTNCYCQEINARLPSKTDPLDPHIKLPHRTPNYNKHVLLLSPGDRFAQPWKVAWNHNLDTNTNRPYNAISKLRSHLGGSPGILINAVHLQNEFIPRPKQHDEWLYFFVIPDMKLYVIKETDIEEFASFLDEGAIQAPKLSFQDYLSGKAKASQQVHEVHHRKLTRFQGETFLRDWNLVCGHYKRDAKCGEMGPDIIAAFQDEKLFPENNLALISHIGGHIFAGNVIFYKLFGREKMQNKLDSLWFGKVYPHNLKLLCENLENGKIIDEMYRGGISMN

B1: Tim17 (natural protein, UniProt P39515 1-158, looked up)
chain: MSADHSRDPCPIVILNDFGGAFAMGAIGGVVWHGIKGFRNSPLGERGSGAMSAIKARAPVLGGNFGVWGGLFSTFDCAVKAVRKREDPWNAIIAGFFTGGALAVRGGWRHTRNSSITCACLLGVIEGVGLMFQRYAAWQAKPMAPPLPEAPSSQPLQA
notes: Tim17, component of the TIM23 translocon, S. cerevisiae; source: endogenous, S. cerevisiae mitochondrial lysate
B2: Tim23 (natural protein, UniProt P32897 1-222, looked up)
chain: MSWLFGDKTPTDDANAAVGGQDTTKPKELSLKQSLGFEPNINNIISGPGGMHVDTARLHPLAGLDKGVEYLDLEEEQLSSLEGSQGLIPSRGWTDDLCYGTGAVYLLGLGIGGFSGMMQGLQNIPPNSPGKLQLNTVLNHITKRGPFLGNNAGILALSYNIINSTIDALRGKHDTAGSIGAGALTGALFKSSKGLKPMGYSSAMVAAACAVWCSVKKRLLEK
notes: Tim23, component of the TIM23 translocon, S. cerevisiae; source: endogenous, S. cerevisiae mitochondrial lysate
B3: Tim22 (natural protein, UniProt Q12328 1-207, looked up)
chain: MVYTGFGLEQISPAQKKPYNELTPEEQGERGAEMIMNFMTSCPGKSVVSGVTGFALGGVLGLFMASMAYDTPLHTPTPANTAATATAGNIGVGGISRTVQQISDLPFRQQMKLQFTDMGKKSYSSAKNFGYIGMIYAGVECVIESLRAKNDIYNGVTAGFFTGAGLAYKAGPQAALMGGAGFAAFSAAIDLYMKSEDGRPPQNDFKE
notes: Tim22, component of the TIM22 translocon, S. cerevisiae; source: endogenous, S. cerevisiae mitochondrial lysate
B4: Tim50 (natural protein, UniProt Q02776 44-476, looked up)
chain: QKETKDDKPKSILTDDMLFKAGVDVDEKGQGKNEETSGEGGEDKNEPSSKSEKSRRKRQTSTDIKREKYANWFYIFSLSALTGTAIYMARDWEPQESEELKKDIDNGYTLSLMYKRFKARFNSMFTYFQEPPFPDLLPPPPPPPYQRPLTLVITLEDFLVHSEWSQKHGWRTAKRPGADYFLGYLSQYYEIVLFSSNYMMYSDKIAEKLDPIHAFVSYNLFKEHCVYKDGVHIKDLSKLNRDLSKVIIIDTDPNSYKLQPENAIPMEPWNGEADDKLVRLIPFLEYLATQQTKDVRPILNSFEDKKNLAEEFDHRVKKLKDKFYGDHKSGGNWAMTALGLGNSLGGSTKFPLDLIHEEGQKNYLMFMKMIEEEKEKIRIQQEQMGGQTFTLKDYVEGNLPSPEEQMKIQLEKQKEVDALFEEEKKKKKIAESK
notes: Tim50, component of the TIM23 translocon, S. cerevisiae; source: endogenous, S. cerevisiae mitochondrial lysate
B5: Sod2 (enzyme, UniProt P00447 27-233, looked up)
chain: KVTLPDLKWDFGALEPYISGQINELHYTKHHQTYVNGFNTAVDQFQELSDLLAKEPSPANARKMIAIQQNIKFHGGGFTNHCLFWENLAPESQGGGEPPTGALAKAIDEQFGSLDELIKLTNTKLAGVQGSGWAFIVKNLSNGGKLDVVQTYNQDTVTGPLVPLVAIDAWEHAYYLQYQNKKADYFKAIWNVVNWKEASRRFDAGKI
notes: Sod2, matrix antioxidant (superoxide dismutase), S. cerevisiae; source: endogenous, S. cerevisiae mitochondrial lysate

How the values were obtained:
[1] = biological target: Erv1 with a C-terminal histidine tag (Erv1-His) (S. cerevisiae) (UniProt P27882); test: pull-down; mitochondria of His-tagged strains solubilized in 1% digitonin, 500 μg lysate incubated with Ni2+-agarose beads, washed, eluted, immunoblot; untagged WT strain as control
Chain of Erv1 with a C-terminal histidine tag (Erv1-His) (S. cerevisiae) (P27882 whole entry): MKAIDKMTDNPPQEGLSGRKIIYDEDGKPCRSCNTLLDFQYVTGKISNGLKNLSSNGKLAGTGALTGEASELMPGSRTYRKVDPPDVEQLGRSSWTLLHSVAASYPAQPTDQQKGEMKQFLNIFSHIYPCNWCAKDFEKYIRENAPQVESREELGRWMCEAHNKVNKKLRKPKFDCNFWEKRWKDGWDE

[2] = biological target: Osm1 with a C-terminal histidine tag (Osm1-His) (S. cerevisiae) (UniProt P21375); test: as above
Chain of Osm1 with a C-terminal histidine tag (Osm1-His) (S. cerevisiae) (P21375 33-501): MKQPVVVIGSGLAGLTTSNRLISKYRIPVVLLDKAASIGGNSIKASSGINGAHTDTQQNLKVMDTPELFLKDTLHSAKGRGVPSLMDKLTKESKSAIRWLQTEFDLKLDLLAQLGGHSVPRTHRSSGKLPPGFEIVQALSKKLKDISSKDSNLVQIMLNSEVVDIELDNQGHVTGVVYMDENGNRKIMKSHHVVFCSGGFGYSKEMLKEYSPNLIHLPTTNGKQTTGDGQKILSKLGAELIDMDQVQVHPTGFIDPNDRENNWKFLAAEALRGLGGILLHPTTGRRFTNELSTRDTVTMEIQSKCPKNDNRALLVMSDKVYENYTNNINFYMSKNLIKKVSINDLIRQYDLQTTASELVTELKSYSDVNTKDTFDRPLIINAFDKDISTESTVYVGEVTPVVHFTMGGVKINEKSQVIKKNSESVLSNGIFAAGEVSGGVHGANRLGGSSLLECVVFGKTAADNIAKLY

[3] = biological target: T1, Aim32 with a C-terminal FLAG tag …; test: co-IP; mitochondrial lysate of Δaim32 [pAIM32-FLAG], ANTI-FLAG M2 affinity gel (FLAG-resin), immunoblot with the indicated antibodies; settings: partners not purified

Molecule | fraction copurified [1] | fraction copurified [2] | fraction copurified [3]
Altered inheritance of mitochondria 32 (Aim32) (from UniProt Q04689 1-311) (natural protein) | 10% | 5% | 
B1 |  |  | ~10%
B2 |  |  | ~10%
B3 |  |  | ~10%
B4 |  |  | ~10%
B5 |  |  | ~10%
